Experimental data: patent US20090081197A1 (PALATIN TECHNOLOGIES, published 2009)
Where two headings read alike, the source gives them in different places. Starred links: 1 amine or outer side, 2 acyl side, 3 side chain; linkers in the order of their positions; H or OH if unused. Non-standard residues stand in square brackets, D forms with d. No end group written: not given here. *: point of attachment. Thr(Bzl) = O-benzyl-threonine, C[C@@H](OCc1ccccc1)[C@H](N[*:1])C(=O)[*:2]; Ser(Bzl) = O-benzyl-serine, O=C([C@H](COCc1ccccc1)N[*:1])[*:2]; dPhe(4-Cl) = N[C@H](Cc1ccc(Cl)cc1)C(=O)O; Heptanoyl = CCCCCCC(=O)*; Ahp = NCCCCCCC(=O)O

What was measured:
[1] = biological target: T1, human melanocortin 4 receptor (human, UniProt P32245 1-332); assay: cell-based or functional assay
T1 sequence (P32245 whole entry): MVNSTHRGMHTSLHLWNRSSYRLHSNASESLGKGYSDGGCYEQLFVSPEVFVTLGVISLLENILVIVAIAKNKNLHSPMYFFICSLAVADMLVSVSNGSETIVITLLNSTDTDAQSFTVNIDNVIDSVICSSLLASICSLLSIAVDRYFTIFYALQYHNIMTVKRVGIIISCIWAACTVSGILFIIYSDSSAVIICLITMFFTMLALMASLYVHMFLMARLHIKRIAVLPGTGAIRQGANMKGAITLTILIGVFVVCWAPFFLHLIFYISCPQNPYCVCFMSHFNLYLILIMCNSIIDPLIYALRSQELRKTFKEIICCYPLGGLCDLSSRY

[2] = biological target: T1, human melanocortin 4 receptor; assay: cell-based or functional assay; remark: listed apart in the source
[3] = biological target: T2, MC1-R of B-16 mouse melanoma cells (mouse, UniProt Q01727 1-315); assay: radioligand competition, [I125]-NDP-α-MSH, B-16 membranes
T2 construct: whole, on cells; also called B16-F10 (MC1-R)
T2 sequence (Q01727 whole entry): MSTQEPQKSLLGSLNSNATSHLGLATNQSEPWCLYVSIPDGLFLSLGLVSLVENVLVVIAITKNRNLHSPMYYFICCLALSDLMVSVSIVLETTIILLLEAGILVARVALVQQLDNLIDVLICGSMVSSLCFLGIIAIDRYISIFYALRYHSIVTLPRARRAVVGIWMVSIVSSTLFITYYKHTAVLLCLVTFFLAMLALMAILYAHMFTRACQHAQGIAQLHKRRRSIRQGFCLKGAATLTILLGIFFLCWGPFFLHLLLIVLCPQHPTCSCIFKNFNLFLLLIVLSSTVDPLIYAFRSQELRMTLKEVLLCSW

[4] = biological target: T3, human melanocortin 3 receptor (human, UniProt P41968 1-323); assay: radioligand competition, [I125]-NDP-α-MSH, hMC3-R membranes
T3 construct: whole, on cells; also called hMC3-R; MC3-R
T3 sequence (P41968 whole entry): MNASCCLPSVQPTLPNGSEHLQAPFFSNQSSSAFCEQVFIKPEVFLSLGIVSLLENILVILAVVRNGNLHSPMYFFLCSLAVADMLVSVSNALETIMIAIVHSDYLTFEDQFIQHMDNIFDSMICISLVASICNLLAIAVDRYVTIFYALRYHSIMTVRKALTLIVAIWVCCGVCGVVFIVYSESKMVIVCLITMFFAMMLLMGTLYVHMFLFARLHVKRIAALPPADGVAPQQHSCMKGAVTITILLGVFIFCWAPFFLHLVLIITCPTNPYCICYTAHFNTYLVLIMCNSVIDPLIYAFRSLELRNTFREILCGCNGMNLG

[5] = biological target: T1, human melanocortin 4 receptor; assay: radioligand competition, [I125]-NDP-α-MSH, hMC4-R membranes
[6] = biological target: T4, human melanocortin 5 receptor (human, UniProt P33032 1-325); assay: radioligand competition, [I125]-NDP-α-MSH, hMC5-R membranes
T4 construct: whole, on cells; also called hMC5-R; MC5-R
T4 sequence (P33032 whole entry): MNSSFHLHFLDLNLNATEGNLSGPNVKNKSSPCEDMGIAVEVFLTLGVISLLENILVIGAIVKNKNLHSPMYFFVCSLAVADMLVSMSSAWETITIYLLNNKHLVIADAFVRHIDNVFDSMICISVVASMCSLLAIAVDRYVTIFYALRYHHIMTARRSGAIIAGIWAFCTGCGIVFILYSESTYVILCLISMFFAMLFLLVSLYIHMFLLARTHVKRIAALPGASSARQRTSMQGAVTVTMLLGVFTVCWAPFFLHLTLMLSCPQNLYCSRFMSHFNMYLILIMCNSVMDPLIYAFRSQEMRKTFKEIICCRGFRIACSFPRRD

[7] = biological target: T1, human melanocortin 4 receptor; assay: cell-based or functional assay; remark: listed apart in the source
[8] = biological target: T2, MC1-R of B-16 mouse melanoma cells; assay: radioligand competition, [I125]-NDP-α-MSH, B-16 membranes; remark: listed apart in the source
[9] = biological target: T3, human melanocortin 3 receptor; assay: radioligand competition, [I125]-NDP-α-MSH, hMC3-R membranes; remark: listed apart in the source
[10] = biological target: T1, human melanocortin 4 receptor; assay: radioligand competition, [I125]-NDP-α-MSH, hMC4-R membranes; remark: listed apart in the source
[11] = biological target: T4, human melanocortin 5 receptor; assay: radioligand competition, [I125]-NDP-α-MSH, hMC5-R membranes; remark: listed apart in the source

Binder | EC50 (nM), normal system (cAMP) [1] | intrinsic activity, normal system (cAMP) [1] | EC50 (nM) (cAMP), High Receptor Density System [2] | Ki [3] | Ki [4] | Ki [5] | Ki [6] | EC50, normal system (cAMP) [1] | EC50 (nM) (cAMP), High Receptor Density System [7] | Ki [8] | Ki [9] | Ki [10] | Ki [11]
Heptanoyl-[Thr(Bzl)][dPhe(4-Cl)]RW-NH2 (SMILES CCCCCCC(=O)N[C@H](C(=O)N[C@H](Cc1ccc(Cl)cc1)C(=O)N[C@@H](CCCNC(=N)N)C(=O)N[C@@H](Cc1c[nH]c2ccccc12)C(N)=O)[C@@H](C)OCc1ccccc1, also called Compound No. 23) [Heptanoyl-Thr(Bzl)-D-Phe(4-Cl)-Arg-Trp-NH2] | > 1000 nM | 0.4 | 184 nM | 747 nM | 374 nM | 21 nM | 292 nM |  |  |  |  |  | 
[Ahp][Ser(Bzl)][dPhe(4-Cl)]RWA-NH2 (N-terminus assumed; SMILES C[C@H](NC(=O)[C@H](Cc1c[nH]c2ccccc12)NC(=O)[C@H](CCCNC(=N)N)NC(=O)[C@@H](Cc1ccc(Cl)cc1)NC(=O)[C@H](COCc1ccccc1)NC(=O)CCCCCCN)C(N)=O, also called Compound No. 15) [NH2-(CH2)6-C(=O)-Ser(Bzl)-D-Phe(4-Cl)-Arg-Trp-Ala-NH2] |  | < 0.1 |  |  |  |  |  | > 1000 nM | 55 nM | 142 nM | 35 nM | 2 nM | 112 nM
